According to the supplement of paper PMC12042874:
± gives the uncertainty stated by the source.

test: amyloid nucleation score (Sup35N fusion, yeast selection) (log enrichment); library NNK2; higher = more nucleation; inactive = no reads after selection
How it was run: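 Growth for 7 days at 30°C on medium lacking adenine and uracil followed a 24-hour induction with 100 μM copper sulfate of psi-negative yeast expressing peptides of 20 random codons fused to Sup35N. Input and output plasmid inserts were sequenced with Illumina, and sequences with under 100 input reads were excluded. Nucleation score is the DiMSum log enrichment of output over input reads, centred on the mode score of non-aggregating sequences.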

Row | Substance | amyloid nucleation score
1 | TRIRWWF | 4.21 ± 0.067
2 | EVEIEE | -0.576 ± 0.76
3 | PIRCRMKFY | -0.599 ± 0.38
4 | IPVSMWQDRVTEVLDFGLRK | 0.389 ± 0.8
5 | PYALWGIRESHLFQKCWSGM | 3.33 ± 0.099
6 | SMFLMSCTDGVFHNRNLHVI | -0.662 ± 0.44
7 | FGLLLWYLCFSHIG | inactive
8 | SCLTDQDERPGLWELSCRYM | 1.1 ± 0.34
9 | YLLFTMRNLLILGRQGRSSL | -0.905 ± 0.45
10 | FLYNFSHIRFVMYNRNESCF | 3.48 ± 0.13
11 | YNPLLIV | 0.082 ± 0.56
12 | FLMYK | -0.75 ± 0.76
13 | SCSVGRNKMWILVLVVVWGE | 0.035 ± 0.54
14 | VQFPSVMFICRIARRRTY | 0.746 ± 0.67
15 | MVLIYRLCQSLRLRHGVGVK | 4.33 ± 0.1
16 | SSFAARRR | 0.276 ± 0.28
17 | YIWLDAYFTESGILYYLMIR | inactive
18 | RPYNPFPLCILRWRPELL | inactive
19 | GVLMIYYWVSMCLYALLIVF | inactive
20 | DIGSMYEMLCRVVTIVLPRS | -0.723 ± 1.1
21 | QDVFCLSGLNSHCK | -1.45 ± 0.78
22 | YCRMYSRNVDGVWHTISKLD | 0.108 ± 0.42
23 | TLWYRLFLVSISVFPKFVTE | -0.451 ± 1.1
24 | SSQSRSISYGLGNCWSWWL | 2.71 ± 0.081
25 | KVSSLNCCVRCLDTMCAFQV | 6.15 ± 0.088

Row | Substance | amyloid nucleation score
26 | SCYRFSRSRS | -0.359 ± 0.49
27 | KMHLAQ | inactive
28 | RVQDRYILNSVRQHHGAGQR | -0.14 ± 1.1
29 | FSSRNFNLCRKTYWWCDSYQ | -0.066 ± 1
30 | GLFVRQGGLRVCWVLPVHAA | 0.645 ± 0.41
31 | AKYRLVVLSEFYSLTPRVLD | -0.107 ± 1
32 | ICFTCQYFNKYPGRS | 4.31 ± 0.09
33 | SVIDFLLAYRKDLWCWDLT | 0.19 ± 0.8
34 | RPNLLSDILPRGLMAKSMHF | 0.107 ± 0.79
35 | SVNYVCISLVVM | 7.14 ± 0.072
36 | IVCWTMVVDLIVDQMLTAYR | 1.03 ± 0.28
37 | SGPWTSWLVSLG | -0.003 ± 1.1
38 | PSAVRTILVTAI | -0.447 ± 0.35
39 | MMVYKGMPVLPCEYRVLY | -0.199 ± 0.36
40 | FAPCNCSCVK | 0.827 ± 0.58
41 | IIVSDSPTLQRS | 0.163 ± 0.63
42 | YTVNCCIRANANGAFFSKVQ | 3.69 ± 0.053
43 | IWDEQCRTLCGARCNDVSAW | 0.799 ± 0.3
44 | DKPLQWHGCVRKKSTRGRGW | 0.927 ± 0.45
45 | SVLSLTKMFGFVADGSRIIK | -0.574 ± 0.5
46 | VNQLYWILCAYMVLCVGRDA | 4.54 ± 0.093
47 | WFYKVSSA | -0.481 ± 0.55
48 | TSHRWAMGSRYEVHIAVGMF | 1.13 ± 0.26
49 | ENNVKLIRNTTNTVVYHLIP | 7.64 ± 0.06
50 | TLFSYEYVYKFMGPRFKGAG | -0.746 ± 0.54

Row | Substance | amyloid nucleation score
51 | TVFFIFHLLVYLPMFTRALD | 8.55 ± 0.043
52 | FGLDYVTYVRWAGVCHLLYF | -0.56 ± 0.55
53 | MIMLDAEGLYIIPRGVSKFL | 1.87 ± 0.11
54 | SRVEVNALVLISYYPVLDTA | 5.736 ± 0.039
55 | LGTNMAMVGSN | -0.623 ± 0.27
56 | SIFYLEGDHDLTTCTDLNTF | 3.13 ± 0.094
57 | LKRRPFDAFNVRMVLVNECG | inactive
58 | LIADLQKFSYVSWAGCMTY | 4.4 ± 0.085
59 | KAGESWTEGDSAVWGFLRLE | 0.942 ± 0.81
60 | RNGVLTEARHLSVSGEERRV | -0.316 ± 0.8
61 | RTIVCF | -0.699 ± 1
62 | FTKSKWLWSRAAFLRIDRW | 0.799 ± 0.74
63 | CVMALVYACRAAHTRPMAYS | inactive
64 | RMDVSYLAFVWSHN | 3.5 ± 0.056
65 | PISFVCYMEKVLDYANWPCR | 8.458 ± 0.066
66 | ESLGDSI | -0.352 ± 1
67 | VWYLFKNAFHMVFKTEWYEG | -1.52 ± 0.54
68 | ASWKFMFNCSKISRRPNTIT | 0.148 ± 1
69 | DSWSIMWSLC | -0.272 ± 1.1
70 | FYNRFRGFIFV | inactive
71 | CHLFVFLGLPRQWVKSRPYA | 0.18 ± 0.22
72 | KVLLMTRT | -0.113 ± 0.45
73 | LFFSATKTCSWSLKECAKR | -0.243 ± 1.1
74 | RYVQLIDHWSNGIVKVVGVL | 0.783 ± 0.56
75 | SSSWSNTHRFCLRTL | inactive

Row | Substance | amyloid nucleation score
76 | GADAGDCPRNHSCAMHAEGF | 1.13 ± 0.46
77 | YPVCGCRLSRLVHNSTVDKV | 0.639 ± 0.46
78 | LTLCSFRCTKLMR | 1.11 ± 0.25
79 | LSGSY | -0.305 ± 1.1
80 | VYIILSFSIGMGEFNMISGG | -0.587 ± 0.79
81 | MLVWTNMFSTLYDISWKAPL | -1.02 ± 0.62
82 | RCNWTSNFFQYMYKNRPNNG | inactive
83 | IESPLIEFTIDCW | -0.025 ± 0.79
84 | LYLTRMFTTNAL | 0.806 ± 0.58
85 | FRSNYVKAFRYLYVGLVVNL | -0.505 ± 1.1
86 | VWWVAFYSGTKI | 0.019 ± 1.1
87 | GRASMRACWVKMFYWFW | 0.981 ± 0.18
88 | PCTMDYGVPRT | 0.585 ± 0.66
89 | SDARPYWIIYMSNQPYGIDS | inactive
90 | FYPAEFYGKGLVDRTLFFIC | 0.12 ± 0.18
91 | RRPCLS | -1.09 ± 0.63
92 | TRVAYRI | 0.219 ± 1
93 | LKLYDKAR | 0.213 ± 0.55
94 | FWVLDSSADYRAS | 5.62 ± 0.075
95 | CFCMINTCYSVINSFTYYGK | 8.047 ± 0.066
96 | YIPNDCTTRDCLTYMMSWMF | -0.077 ± 0.63
97 | RSRVLILCDEGRNCVL | -0.533 ± 0.42
98 | CFGISSS | -1.12 ± 0.36
99 | DIARDLVWGLRSNAGAQLGN | 0.54 ± 0.44
100 | SIFPRTCSNSACLWISSRKL | 4.259 ± 0.042

Row | Substance | amyloid nucleation score
101 | GLVRPLSLMVETANAVHG | 1.39 ± 0.35
102 | TYIFLSRIGQFSKLQYVMRL | 5.37 ± 0.056
103 | FPFLDGVVLSKEFYNLR | -1 ± 1
104 | NRLDNFRHQTEGKRRV | -0.841 ± 1.1
105 | SAFIVNCNLINAQERDFKSD | 6.682 ± 0.034
106 | ARNIGDCRDVSCDWCFSYAF | 5.13 ± 0.064
107 | ESSSVKPPVRFLW | 0.455 ± 0.64
108 | LVAHPLYGSTKWGN | -0.596 ± 0.79
109 | RSWIGERIIYSSMRYQCAYL | -1.42 ± 0.54
110 | SGYPRRIYWLVGKCLWYHRA | 0.921 ± 0.48
111 | AWACYSECQDIRGNYSEVVL | -0.671 ± 0.48
112 | YCWWRSWEPKILRCSLVLVK | 0.281 ± 0.44
113 | RLDNIIVAERCTSLRESRFG | -0.047 ± 1.1
114 | VRYFGDILFMSALYNLAGFA | inactive
115 | MIWNCTVFFLGDGAPLCGLC | 8.5 ± 0.064
116 | SVNWTRLRECKPWMQVFNRG | 0.208 ± 0.56
117 | RSSADAPVY | -0.864 ± 1.1
118 | NIVVVYIEFSGVHPTLVLLW | -0.42 ± 0.3
119 | FFIGIQQWSYHWPVVGVYNK | inactive
120 | SRLGVFMYANVLWGKQSRND | 6.267 ± 0.058
121 | LNVGPQGYMCGSPLYDHCG | 2.73 ± 0.076
122 | SYYLALYLMEYFYLDDARLN | -1.2 ± 1
123 | GVKRYDVHM | -0.244 ± 0.48
124 | TGVIAYVRKVGDLSSCVYSC | 3.6 ± 0.14
125 | FMLQVVGRVEVFH | 3.32 ± 0.066

Row | Substance | amyloid nucleation score
126 | VWVPQSVIRSLHLPSN | -1.01 ± 1.1
127 | EVRIDHGHVIA | 0.293 ± 0.43
128 | MTRVTYMYVFIYACESRYTH | -0.116 ± 0.22
129 | TSVASGRNGNSPVHNALAWG | 0.2 ± 0.35
130 | LYCQFSYVRCKPGKRSDLGW | 1.88 ± 0.23
131 | SYWNLRQVVSIDDCMQSTFN | 0.058 ± 1
132 | GFVDELLNKRRLMCLIKTWK | 0.179 ± 0.44
133 | VTSICNPDVIMEEKLGDNRG | -0.416 ± 0.28
134 | FAKCHFSQSARYIY | inactive
135 | NSIGV | -1.02 ± 0.55
136 | MVKLFSLSTS | -0.533 ± 0.2
137 | TDKIWSCHLGQTAWLSKSSG | 0.385 ± 0.33
138 | SSYTKMC | -0.934 ± 0.78
139 | VWTES | 1.83 ± 0.25
140 | HSNLVT | 0.234 ± 0.41
141 | RSIRCVYKF | -0.465 ± 0.29
142 | CKRFFYFLGIPATPDRSAFS | -0.588 ± 0.76
143 | KLNCMRGLPGLCPRWFIIAC | 0.089 ± 1.1
144 | MINLQYLVGNLAVGL | 1.37 ± 0.14
145 | FLVLGFMIWYTLRCLALTFS | inactive
146 | FCCHHCITGITEKAN | 0.674 ± 0.36
147 | VDEQSLNR | 0.62 ± 0.41
148 | WRVSSSI | -0.706 ± 0.76
149 | LKAWYYSVYSRTVTYSPMLH | -1.03 ± 0.61
150 | SNLLWAKSGPKAVWKPGRWD | 0.423 ± 0.41

Row | Substance | amyloid nucleation score
151 | CSYSFDLTANICPISLNVVC | 5.001 ± 0.043
152 | VMNVNSCGWVVRHNR | 4.97 ± 0.1
153 | FIIVK | -1.32 ± 0.41
154 | VDSRGFHYDL | inactive
155 | PHVFYCSILV | inactive
156 | NSVRNTYWKAPGNLTEGVSG | -0.054 ± 0.4
157 | NTVFLLSFGCCEYYRFWGYL | 8.34 ± 0.057
158 | PKRSCLVLGYNIVITDMQAR | 6.28 ± 0.067
159 | TLRTFRRAQGTRYVYLK | 0.121 ± 0.23
160 | PCYFINFLRFSWNIQLYNVL | -0.668 ± 1.1
161 | YYGSGNPSQGVVSEWLVRDA | 0.571 ± 0.36
162 | CGYLRDTWWFFCVTLRNRGV | 1.12 ± 0.27
163 | IGLNTYTMF | 0.282 ± 0.49
164 | HFVFI | -1.05 ± 1.1
165 | SLLIYQMYE | -0.263 ± 0.76
166 | DLRYTMYYDCFCYVFCPSMT | 8.166 ± 0.059
167 | AHHPYTNQGSTVRSRAGQWG | 0.519 ± 0.54
168 | AAVSSCLLFYSC | 3.5 ± 0.082
169 | WRIYQDTFCLSIS | 3.87 ± 0.076
170 | AFCTKCASMRAILRGGGLVW | -0.109 ± 0.76
171 | LYLYPAMFVSWLSGLPTRFC | -0.406 ± 1.1
172 | HGQARWGR | 1.47 ± 0.28
173 | WRAKAFSEKFIERRWDVGMN | -1.18 ± 0.62
